Legend:
recombinant human DLL1 = target: T1, recombinant human DLL1 (human, UniProt O00548 18-540, limits assumed); assay: ELISA, plate-bound recombinant human DLL1 (1 µg/mL), anti-mouse IgG-HRP/TMB, % of positive control max
T1 sequence (looked up): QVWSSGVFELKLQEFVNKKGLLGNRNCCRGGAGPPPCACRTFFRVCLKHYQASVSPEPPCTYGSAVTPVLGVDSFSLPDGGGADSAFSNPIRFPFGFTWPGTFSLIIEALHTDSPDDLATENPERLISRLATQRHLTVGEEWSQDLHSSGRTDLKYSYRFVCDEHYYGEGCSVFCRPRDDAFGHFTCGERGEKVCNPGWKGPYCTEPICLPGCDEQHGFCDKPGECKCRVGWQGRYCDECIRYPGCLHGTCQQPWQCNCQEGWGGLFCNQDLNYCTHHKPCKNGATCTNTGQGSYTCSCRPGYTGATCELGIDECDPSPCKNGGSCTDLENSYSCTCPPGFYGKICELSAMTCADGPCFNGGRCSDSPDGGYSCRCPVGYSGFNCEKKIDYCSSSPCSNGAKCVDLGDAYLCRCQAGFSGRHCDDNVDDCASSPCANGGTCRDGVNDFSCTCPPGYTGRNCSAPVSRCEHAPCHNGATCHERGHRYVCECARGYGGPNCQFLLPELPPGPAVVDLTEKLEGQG
Description: (§1) To investigate the binding of anti-DLL3 antibodies to human DLL3, wells of high binding flat-bottom plates were coated with recombinant human DLL3 diluted to 0.5 μg/ml. To assess cross-reactivity of the antibodies to DLL1/DLL4, which are closely related family members to DLL3, plates were coated with recombinant human DLL1 diluted to 1 μg/ml, or human DLL4 diluted to 0.5 μg/ml. […] Binding was detected using anti-mouse IgG-HRP and 3,3′,5,5′-Tetramethylbenzidine (TMB) substrate. Signals were normalized to the corresponding positive control antibody.

[1] = target: T2, recombinant human DLL3 (ELISA coat) (human, UniProt Q9NYJ7 27-492); assay: ELISA, plate coated with recombinant human DLL3 0.5 µg/ml, anti-mouse IgG-HRP
T2 sequence: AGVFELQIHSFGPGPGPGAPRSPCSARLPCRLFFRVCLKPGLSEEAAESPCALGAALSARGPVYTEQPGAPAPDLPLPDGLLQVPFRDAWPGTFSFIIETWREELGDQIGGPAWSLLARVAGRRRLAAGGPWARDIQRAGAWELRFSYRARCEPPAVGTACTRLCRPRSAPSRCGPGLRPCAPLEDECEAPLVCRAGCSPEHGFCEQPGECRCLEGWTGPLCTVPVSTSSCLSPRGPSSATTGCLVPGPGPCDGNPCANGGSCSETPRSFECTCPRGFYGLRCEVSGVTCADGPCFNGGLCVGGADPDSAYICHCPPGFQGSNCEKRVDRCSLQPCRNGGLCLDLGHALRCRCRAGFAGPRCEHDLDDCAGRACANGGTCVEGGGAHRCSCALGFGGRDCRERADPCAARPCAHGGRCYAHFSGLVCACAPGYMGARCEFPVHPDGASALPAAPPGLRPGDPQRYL
Description: as §1
Table 38 lists the calculated EC₅₀ based on the binding data from FIG. 24.

human DLL3-His = target: T3, human DLL3-His (human, UniProt Q9NYJ7 27-492); assay: SPR (Biacore 8K), 37 C, antibody captured on anti-human Fc, DLL3-His 0.411-300 nM injected, 1:1 fit
T3 construct: also called hDLL3
T3 sequence: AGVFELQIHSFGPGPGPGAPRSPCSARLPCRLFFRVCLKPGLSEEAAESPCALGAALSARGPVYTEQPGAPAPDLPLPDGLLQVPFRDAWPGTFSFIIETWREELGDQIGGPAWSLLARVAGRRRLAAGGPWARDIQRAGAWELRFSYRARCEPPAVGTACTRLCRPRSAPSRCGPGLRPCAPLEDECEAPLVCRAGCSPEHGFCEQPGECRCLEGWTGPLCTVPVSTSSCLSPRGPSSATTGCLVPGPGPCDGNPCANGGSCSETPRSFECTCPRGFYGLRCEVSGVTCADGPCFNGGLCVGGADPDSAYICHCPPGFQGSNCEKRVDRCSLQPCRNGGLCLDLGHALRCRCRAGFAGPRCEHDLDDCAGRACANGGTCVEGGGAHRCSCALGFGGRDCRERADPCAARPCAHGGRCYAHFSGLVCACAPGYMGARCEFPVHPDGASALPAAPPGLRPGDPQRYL
Text: The kinetics of binding of different humanized variants and parental murine 5E7 antibody to human DLL3-His was studied by Surface Plasmon Resonance using a Biacore 8K instrument. Briefly, anti-hFc and anti-mFc IgG proteins were covalently immobilized onto different channels of CMS chip to allow simultaneous analysis of human and murine antibodies. m5E7 was captured on the anti-mouse Fc channel and humanized variants were captured on the anti-human Fc channel at a desired capture level of […] in HBS-EP+ buffer supplemented with 0.1% BSA. Three buffer blanks and human DLL3-His (analyte) at concentrations 0.411-300 nM (in three fold dilutions) were injected over the surface with captured murine or humanized 5E7 for 300 second association time and let dissociate for 600 second at a flow rate of 30 μL/min. The surfaces were subjected to regeneration with three 20-second pulses of 10 mM glycine pH 1.70 at a flow rate of 100 μL/min between every concentration of analyte. The experiment was conducted at 37° C. Data were double referenced and a 1:1 fit model was applied to the sensorgrams in the Biacore Insight Evaluation software.
The kinetic parameters of human DLL3-His binding to murine and humanized variants of 5E7 antibody variants were calculated and shown in Table 39.

[2] = target: T4, recombinant mouse NKG2D-Fc fusion protein (mouse; human, UniProt O54709 90-232); assay: ELISA, plate-bound recombinant mouse NKG2D-Fc, anti-human kappa-HRP/TMB
T4 construct: extracellular domain; also called Mouse NKG2D-Fc-biotin; not shown: human IgG1 Fc domain
T4 sequence (looked up): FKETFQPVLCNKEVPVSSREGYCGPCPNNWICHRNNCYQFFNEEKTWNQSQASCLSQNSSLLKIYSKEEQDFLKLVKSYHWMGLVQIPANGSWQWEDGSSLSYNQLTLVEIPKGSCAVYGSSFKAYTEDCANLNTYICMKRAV
Text: (§2) The nucleic acid sequences of human, mouse or cynomolgus NKG2D ectodomains were fused with nucleic acid sequences encoding human IgG1 Fc domains and introduced into mammalian cells to be expressed. After purification, NKG2D-Fc fusion proteins were adsorbed to wells of microplates. After blocking the wells with bovine serum albumin to prevent non-specific binding, NKG2D-binding domains were titrated and added to the wells pre-adsorbed with NKG2D-Fc fusion proteins. Primary antibody binding was detected using a secondary antibody which was conjugated to horseradish peroxidase and specifically recognizes a human kappa light chain to avoid Fc cross-reactivity. 3,3′,5,5′-Tetramethylbenzidine (TMB), a substrate for horseradish peroxidase, was added to the wells to visualize the binding signal, whose absorbance was measured at 450 nm and corrected at […]. An NKG2D-binding domain clone, an isotype control or a positive control (comprising heavy chain and light chain variable domains selected from SEQ ID NOs:101-104, or anti-mouse NKG2D clones MI-6 and CX-5, eBioscience, San Diego, Calif.) was added to each well.

[3] = target: T5, recombinant human NKG2D-Fc fusion protein (human, UniProt P26718 73-216); assay: ELISA, plate-bound recombinant human NKG2D-Fc, anti-human kappa-HRP/TMB
T5 construct: extracellular domain; also called NKG2D-Fc-biotin; not shown: human IgG1 Fc domain
T5 sequence (looked up): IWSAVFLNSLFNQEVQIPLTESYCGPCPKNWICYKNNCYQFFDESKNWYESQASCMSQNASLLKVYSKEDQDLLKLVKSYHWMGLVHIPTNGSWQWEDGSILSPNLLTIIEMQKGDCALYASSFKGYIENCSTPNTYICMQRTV
Text: as §2

[4] = target: T6, recombinant cynomolgus NKG2D-Fc fusion protein (cynomolgus; human, UniProt P61252 73-216); assay: ELISA, plate-bound recombinant cynomolgus NKG2D-Fc, anti-human kappa-HRP/TMB
T6 construct: extracellular domain; not shown: human IgG1 Fc domain
T6 sequence (looked up): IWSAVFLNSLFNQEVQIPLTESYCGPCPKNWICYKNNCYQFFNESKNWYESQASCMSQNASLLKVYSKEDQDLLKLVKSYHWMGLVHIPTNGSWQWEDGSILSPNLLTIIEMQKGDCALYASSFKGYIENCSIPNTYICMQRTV
Text: as §2

Binder	Kd (human DLL3-His)	koff (human DLL3-His)	kon (human DLL3-His)	binding result [2]	other results
anti-DLL3 antibody clone 10F5 (antibody, V domains shown, Murine antibody from a mouse hybridoma) VH: QLQLVQSGPELMRPGETVKISCKASGYTFTTYGMNWVKQAPGKGLKWVGWINTYSGVPTYADDFKGRFAFSLESSASTAFLQINNLKDEDTATYFCARFGNYGFDCWGQGTTLTVSS VL: DIVMTQSPSSLSVSAGEKVTMSCKSSQSLLNSGNQKNYLAWYQQKPGQPPKLLIYGASTRESGVPDRFTGSGSGTDFTLTISSVQAEDLAVYYCQNDHIYPYTFGGGTKLEIK					binding result (recombinant human DLL1): no binding; EC50 [1]: 0.64 nM
humanized anti-DLL3 antibody h5E7-YD-A6 (antibody, V domains shown, Expressed as IgG1 mAb: human IgG1 CH1-CH2-CH3 and human constant kappa; also called A6 variant) VH: QVQLVQSGAEVKKPGASVKVSCKASGFNIKDDYIHWVRQAPGQGLEWMGWIDSENGDTEYASKFQGRVTITADTSANTAYMELSSLRSEDTAVYYCATSSYWSYDLFVYWGQGTLVTVSS VL: DVQMTQSPSSLSASVGDRVTITCKSSQSLLHSNGKTYLNWLQQKPGQAPKLLLYLVSKLESGVPSRFSGSGSGTDYTLTISSLQPEDFATYYCLQTTHLYTFGQGTKLEIK	1.1 nM	0.000434 s⁻¹	396000 M⁻¹ s⁻¹		
humanized anti-DLL3 antibody h5E7-YD-B5 (antibody, V domains shown, Expressed as IgG1 mAb: human IgG1 CH1-CH2-CH3 and human constant kappa; also called B5 variant) VH: QVQLVQSGAEVKKPGASVKVSCKASGFNIKDDYIHWVRQAPGQGLEWMGWIDSENGDTEYASKFQGRVTITADTSANTAYMELSSLRSEDTAVYYCATSTYWSYDLFVYWGQGTLVTVSS VL: DVQMTQSPSSLSASVGDRVTITCKSSQSLLHSNGKTYLNWLQQKPGQAPKLLLYLVSKLESGVPSRFSGSGSGTDYTLTISSLQPEDFATYYCLQTTHLYTFGQGTKLEIK	0.27 nM	0.00013 s⁻¹	474000 M⁻¹ s⁻¹		
humanized anti-DLL3 antibody h5E7-YD-F3 (antibody, V domains shown, Expressed as IgG1 mAb: human IgG1 CH1-CH2-CH3 and human constant kappa; also called F3 variant) VH: QVQLVQSGAEVKKPGASVKVSCKASGFNIKDDYIHWVRQAPGQGLEWMGWIDSENGDTEYASKFQGRVTITADTSANTAYMELSSLRSEDTAVYYCATSSYWSYDLLVYWGQGTLVTVSS VL: DVQMTQSPSSLSASVGDRVTITCKSSQSLLHSNGKTYLNWLQQKPGQAPKLLLYLVSKLESGVPSRFSGSGSGTDYTLTISSLQPEDFATYYCLQTTHLYTFGQGTKLEIK	1.29 nM	0.000405 s⁻¹	312000 M⁻¹ s⁻¹		
ADI-27705 (antibody, V domains shown) VH: QVQLQQWGAGLLKPSETLSLTCAVYGGSFSGYYWSWIRQPPGKGLEWIGEIDHSGSTNYNPSLKSRVTISVDTSKNQFSLKLSSVTAADTAVYYCARARGPWSFDPWGQGTLVTVSS VL: not shown				binds	EC50 (read off the curve) [3]: ~0.6 nM; binding result [4]: binds
ADI-27741 (antibody, V domains shown) VH: QVQLQQWGAGLLKPSETLSLTCAVYGGSFSGYYWSWIRQPPGKGLEWIGEIDHSGSTNYNPSLKSRVTISVDTSKNQFSLKLSSVTAADTAVYYCARARGPWSFDPWGQGTLVTVSS VL: DIQMTQSPSTLSASVGDRVTITCRASQSIGSWLAWYQQKPGKAPKLLIYKASSLESGVPSRFSGSGSGTEFTLTISSLQPDDFATYYCQQSNSYYTFGGGTKVEIK				binds	binding result [3]: binds; binding result [4]: binds
ADI-27724 (antibody, V domains shown) VH: QVQLQQWGAGLLKPSETLSLTCAVYGGSFSGYYWSWIRQPPGKGLEWIGEIDHSGSTNYNPSLKSRVTISVDTSKNQFSLKLSSVTAADTAVYYCARARGPWSFDPWGQGTLVTVSS VL: not shown					EC50 (read off the curve) [2]: ~8 nM; EC50 (read off the curve) [3]: ~10 nM; EC50 (read off the curve) [4]: ~10 nM

Now from value to binder, other results behind:

Kd (human DLL3-His)	koff (human DLL3-His)	kon (human DLL3-His)	binding result [2]	Binder	other results
3.35 nM	0.00137 s⁻¹	409000 M⁻¹ s⁻¹		humanized anti-DLL3 antibody h5E7-YD-C6 (antibody, V domains shown, Expressed as IgG1 mAb: human IgG1 CH1-CH2-CH3 and human constant kappa; also called C6 variant) VH: QVQLVQSGAEVKKPGASVKVSCKASGFNIKDDYIHWVRQAPGQGLEWMGWIDSENGDTEYASKFQGRVTITADTSANTAYMELSSLRSEDTAVYYCATSEYYSYDLFVYWGQGTLVTVSS VL: DVQMTQSPSSLSASVGDRVTITCKSSQSLLHSNGKTYLNWLQQKPGQAPKLLLYLVSKLESGVPSRFSGSGSGTDYTLTISSLQPEDFATYYCLQTTHLYTFGQGTKLEIK	
			binds	ADI-28226 (antibody, V domains shown, also called C26) VH: QVQLQQWGAGLLKPSETLSLTCAVYGGSFSGYYWSWIRQPPGKGLEWIGEIDHSGSTNYNPSLKSRVTISVDTSKNQFSLKLSSVTAADTAVYYCARARGPWSFDPWGQGTLVTVSS VL: DIQMTQSPSTLSASVGDRVTITCRASQSISSWLAWYQQKPGKAPKLLIYKASSLESGVPSRFSGSGSGTEFTLTISSLQPDDFATYYCQQYGSFPITFGGGTKVEIK	binding result [3]: binds; EC50 (read off the curve) [4]: ~1 nM
